From publication PMC8484547, “The NAM/ATAF1/2/CUC2 transcription factor PpNAC.A59 enhances PpERF.A16 expression to promote ethylene biosynthesis during peach fruit ripening” come the findings set out here.

The target in the data set is PpERF.A16::HIS (Prunus persica? (peach), UniProt A0A251PUJ2 1-382). Description: BLI; response rises with protein concentration; BLI: PBS (1.4 mM KH2PO4, 2.7 mM KCl, 4.3 mM Na2HPO4, 137 mM NaCl, 0.02% Tween-20, pH 7.2), temperature not stated; EMSA: 5 mM MgCl2, 2.5% glycerol, 0.05% NP-40, 1 mg (so in the source) poly(dI-dC), 200 nM probe, 1 ug protein in 20 ul, 20 min, room temperature. Particulars: protein: recombinant; tags: HIS, trigger factor fusion (pCold-TF); label: biotin.
Sequence of PpERF.A16::HIS (A0A251PUJ2 entry or part of it): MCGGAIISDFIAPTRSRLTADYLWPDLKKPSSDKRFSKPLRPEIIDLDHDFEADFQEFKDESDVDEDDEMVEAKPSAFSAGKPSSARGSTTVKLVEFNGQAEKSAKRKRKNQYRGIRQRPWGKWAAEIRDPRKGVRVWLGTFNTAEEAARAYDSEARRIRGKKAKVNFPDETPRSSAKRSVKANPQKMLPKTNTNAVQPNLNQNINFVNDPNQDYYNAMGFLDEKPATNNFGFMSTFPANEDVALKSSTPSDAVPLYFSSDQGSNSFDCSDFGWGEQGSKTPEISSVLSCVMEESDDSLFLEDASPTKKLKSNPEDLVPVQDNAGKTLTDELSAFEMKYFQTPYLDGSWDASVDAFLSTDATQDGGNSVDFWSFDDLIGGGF

B1: PpACS1 promoter probe (dsDNA)
DNA 1: ACACCATCTCAACCATTGCCCCCACAATTGATAGCTTGC
DNA 2: GCAAGCTATCAATTGTGGGGGCAATGGTTGAGATGGTGT
In the case of B1, the binding result was “binds”.

B2: PpACO1 promoter probe(s) (dsDNA)
DNA 1: AGTCAAAAGCTTTCGGCGTCAAGATTCCATTG
DNA 2: CAATGGAATCTTGACGCCGAAAGCTTTTGACT
B2: the binding result was “binds”.

B3: PpendoPGM promoter probe(s) (dsDNA)
DNA 1: CGTAAGGTCATTACGGCGCCGTTTCCCTTTTTAATTGGCG
DNA 2: CGCCAATTAAAAAGGGAAACGGCGCCGTAATGACCTTACG
Consider B3, for which the binding result was “binds”.
